The test has as its target GluA2 subunit of native AMPA receptors (nAMPAR) from rat brain (rat (endogenous in rat brain), UniProt P19491). Kind of test: cryo-EM structure.

GluA2 subunit of native AMPA receptors (nAMPAR) from rat brain, sequence (P19491 22-883): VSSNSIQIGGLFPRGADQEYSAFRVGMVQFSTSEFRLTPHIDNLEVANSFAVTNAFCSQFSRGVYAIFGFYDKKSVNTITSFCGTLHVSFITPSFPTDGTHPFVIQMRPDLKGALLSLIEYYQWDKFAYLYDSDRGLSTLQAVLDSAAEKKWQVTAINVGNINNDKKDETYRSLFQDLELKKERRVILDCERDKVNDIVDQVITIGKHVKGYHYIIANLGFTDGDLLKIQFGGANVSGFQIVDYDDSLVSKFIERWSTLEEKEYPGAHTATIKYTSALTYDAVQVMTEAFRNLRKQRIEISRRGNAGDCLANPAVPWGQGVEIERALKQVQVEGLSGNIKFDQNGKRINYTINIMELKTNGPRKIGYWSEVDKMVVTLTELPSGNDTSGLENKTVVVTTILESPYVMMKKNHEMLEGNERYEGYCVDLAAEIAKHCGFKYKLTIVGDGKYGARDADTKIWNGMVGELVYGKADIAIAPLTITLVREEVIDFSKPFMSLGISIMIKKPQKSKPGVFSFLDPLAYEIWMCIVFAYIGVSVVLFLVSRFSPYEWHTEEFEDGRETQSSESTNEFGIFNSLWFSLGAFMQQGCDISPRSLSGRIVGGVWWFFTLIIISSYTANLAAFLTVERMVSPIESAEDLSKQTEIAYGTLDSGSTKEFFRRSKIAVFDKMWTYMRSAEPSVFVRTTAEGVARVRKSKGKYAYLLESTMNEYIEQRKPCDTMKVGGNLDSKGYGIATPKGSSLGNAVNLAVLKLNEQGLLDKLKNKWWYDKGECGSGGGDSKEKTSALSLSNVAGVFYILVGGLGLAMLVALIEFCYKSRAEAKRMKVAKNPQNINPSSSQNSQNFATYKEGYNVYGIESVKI

B1: 15F1 Fab, anti-GluA2 (Fab, V domains shown)
VH: QAQLKESGPGLVAPSQSLSITCTVSGFSLTNYGVHWVRQPPGKGLEWLGVIWAGGSTNYNSALMSRVSISKDNSKSQVFLKMNSLQTDDTVMYYCAREDYDYDWHFDVWGAGTTVTVSS
VL: EIQMTQTTSSLSASLGDRVTISCRASQDISNYLSWYQQKPDGTVKLLIYYTSRLHSGVPSRFSGSGSGIDYSLTINNLEQEDFATYFCQQGNTLPLTFGAGTKLELK
Turning to B1, the binding result was “binds”.

Source of the values: publication PMC6701862 (Science (New York, N.Y.), 2019).
